Target: Sec23a/Sec24d (full-length, wild type) (H. sapiens) (UniProt Q15436)
Experiment: cell-based or functional assay
Conditions: scale: % of protein present in starting permeabilized cells

Sec23a/Sec24d (full-length, wild type) (H. sapiens), sequence (Q15436 whole entry, chain 1 of 2): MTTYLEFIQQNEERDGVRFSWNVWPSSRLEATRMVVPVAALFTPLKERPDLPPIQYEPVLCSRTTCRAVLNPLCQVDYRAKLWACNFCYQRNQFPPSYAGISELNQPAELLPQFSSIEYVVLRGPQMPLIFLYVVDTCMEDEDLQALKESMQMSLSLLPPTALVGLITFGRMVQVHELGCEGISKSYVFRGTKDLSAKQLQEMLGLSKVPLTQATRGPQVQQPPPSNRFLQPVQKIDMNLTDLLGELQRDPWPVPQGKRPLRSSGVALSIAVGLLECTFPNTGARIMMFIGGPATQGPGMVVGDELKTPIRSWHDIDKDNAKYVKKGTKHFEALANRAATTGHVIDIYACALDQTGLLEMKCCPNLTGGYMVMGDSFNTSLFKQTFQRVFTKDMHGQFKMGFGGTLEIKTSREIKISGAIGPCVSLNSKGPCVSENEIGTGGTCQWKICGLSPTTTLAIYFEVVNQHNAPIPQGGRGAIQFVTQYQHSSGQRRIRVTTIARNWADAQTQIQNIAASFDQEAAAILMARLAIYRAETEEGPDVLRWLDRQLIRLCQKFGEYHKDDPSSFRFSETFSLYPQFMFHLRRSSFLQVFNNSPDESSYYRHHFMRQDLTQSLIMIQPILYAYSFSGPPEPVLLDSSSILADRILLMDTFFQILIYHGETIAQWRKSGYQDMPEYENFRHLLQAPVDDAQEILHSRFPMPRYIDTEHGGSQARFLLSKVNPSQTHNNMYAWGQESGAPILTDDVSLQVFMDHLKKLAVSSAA
Sec23a/Sec24d (full-length, wild type) (H. sapiens), sequence (O94855 other isoform, or with tags, fused parts or gaps, chain 2 of 2, further chain): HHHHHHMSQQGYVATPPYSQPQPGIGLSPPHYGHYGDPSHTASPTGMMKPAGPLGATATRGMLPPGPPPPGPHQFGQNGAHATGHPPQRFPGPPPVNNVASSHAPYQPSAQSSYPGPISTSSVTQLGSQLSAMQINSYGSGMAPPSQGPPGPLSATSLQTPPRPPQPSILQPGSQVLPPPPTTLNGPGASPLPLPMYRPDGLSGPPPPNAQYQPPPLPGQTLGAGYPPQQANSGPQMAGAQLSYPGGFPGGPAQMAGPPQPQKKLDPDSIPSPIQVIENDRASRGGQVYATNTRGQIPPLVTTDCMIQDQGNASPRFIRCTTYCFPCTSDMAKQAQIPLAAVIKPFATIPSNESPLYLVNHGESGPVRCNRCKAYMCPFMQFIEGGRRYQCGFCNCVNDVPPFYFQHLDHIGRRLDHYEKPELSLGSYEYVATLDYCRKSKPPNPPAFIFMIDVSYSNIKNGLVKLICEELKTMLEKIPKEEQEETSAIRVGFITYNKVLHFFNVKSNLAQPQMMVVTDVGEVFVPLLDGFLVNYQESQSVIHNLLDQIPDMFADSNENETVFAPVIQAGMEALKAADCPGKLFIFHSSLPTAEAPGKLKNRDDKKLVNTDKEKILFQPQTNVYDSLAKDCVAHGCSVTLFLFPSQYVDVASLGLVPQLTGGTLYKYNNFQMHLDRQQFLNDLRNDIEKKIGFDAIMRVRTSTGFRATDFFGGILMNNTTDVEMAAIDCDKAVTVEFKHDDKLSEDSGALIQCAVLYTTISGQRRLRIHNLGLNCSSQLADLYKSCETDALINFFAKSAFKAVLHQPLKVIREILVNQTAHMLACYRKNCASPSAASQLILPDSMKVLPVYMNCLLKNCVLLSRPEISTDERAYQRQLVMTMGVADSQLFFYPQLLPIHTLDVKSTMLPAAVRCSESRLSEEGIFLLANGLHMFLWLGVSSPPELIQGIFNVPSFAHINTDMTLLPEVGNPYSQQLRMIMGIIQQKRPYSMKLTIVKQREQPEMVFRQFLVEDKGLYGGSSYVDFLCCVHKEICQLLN

**Q.** ERGIC-53 was tested. Which packaging efficiency with wild-type COPII, CHO-LDLRG544V cells did it give?
**A.** The packaging efficiency with wild-type COPII, CHO-LDLRG544V cells was 4.5.

**Q.** For p24α2, which packaging efficiency with wild-type COPII, CHO-LDLRG544V cells is on record?
**A.** The packaging efficiency with wild-type COPII, CHO-LDLRG544V cells was 8.7.

**Q.** What about the packaging efficiency with wild-type COPII, wild-type CHO cells of the same substance?
**A.** Its packaging efficiency with wild-type COPII, wild-type CHO cells is 10.9.

**Q.** p24α3 was tested. Which packaging efficiency with wild-type COPII, CHO-LDLRG544V cells did it give?
**A.** The packaging efficiency with wild-type COPII, CHO-LDLRG544V cells was 6.4.

**Q.** What about the packaging efficiency with wild-type COPII, wild-type CHO cells of the same substance?
**A.** The packaging efficiency with wild-type COPII, wild-type CHO cells was 6.4.

**Q.** How did the packaging efficiency with wild-type COPII, CHO-LDLRG544V cells turn out when p24β1 was run?
**A.** Its packaging efficiency with wild-type COPII, CHO-LDLRG544V cells is 10.6.

**Q.** For p24δ1, which packaging efficiency with wild-type COPII, CHO-LDLRG544V cells is on record?
**A.** The packaging efficiency with wild-type COPII, CHO-LDLRG544V cells was 7.7.

**Q.** What about the packaging efficiency with wild-type COPII, wild-type CHO cells of the same substance?
**A.** Its packaging efficiency with wild-type COPII, wild-type CHO cells is 4.6.

From patent publication US20200179316A1
